Consider 1 substance from publication doi:10.64898/2025.12.01.691523.

For this assay, the target named is Anopheles culicifacies ferritin heavy chain homolog (AcFtnHCH), recombinant, refolded (Anopheles culicifacies). The assay can be described thus: native gel or EMSA. (In general: A gel shift assay detects complexes by their altered migration in electrophoresis.)

What is called stoichiometry N is the number of molecules, sites or subunits per partner or assembly. With “Anopheles culicifacies ferritin heavy chain homolog (AcFtnHCH), recombinant, refolded (natural protein)”, the stoichiometry N is 24.
